According to publication doi:10.1101/2022.05.16.492059 (bioRxiv, 2022):

Target: the molecule itself
Experiment: SEC-MALS

B1: PGL-3 (1-452) (domain or fragment, C. elegans, UniProt G5EBV6 1-452, looked up)
chain: MEANKRQIVEVDGIKSYFFPHLAHYLASNDELLVNNIAQANKLAAFVLGATDKRPSNEEIAEMILPNDSSAYVLAAGMDVCLILGDDFRPKFDSGAEKLSQLGQAHDLAPIIDDEKKISMLARKTKLKKSNDAKILQVLLKVLGAEEAEEKFVELSELSSALDLDFDVYVLAKLLGFASEELQEEIEIIRDNVTDAFEACKPLLKKLMIEGPKIDSVDPFTQLLLTPQEESIEKAVSHIVARFEEASAVEDDESLVLKSQLGYQLIFLVVRSLADGKRDASRTIQSLMPSSVRAEVFPGLQRSVFKSAVFLASHIIQVFLGSMKSFEDWAFVGLAEDLESTWRRRAIAELLKKFRISVLEQCFSQPIPLLPQSELNNETVIENVNNALQFALWITEFYGSESEKKSLNQLQFLSPKSKNLLVDSFKKFAQGLDSKDHVNRIIESLEKSSSSE
- stoichiometry N: 2
